Laboratory results: PMC7278938, “The MKK-Dependent Phosphorylation of p38α Is Augmented by Arginine Methylation on Arg49/Arg149 during Erythroid Differentiation” (International Journal of Molecular Sciences, 2020)

Key:
Flag-p38α wild type [1] = target: T1, Flag-p38α wild type (UniProt Q16539 1-360); test: cell-based or functional assay
[2] = target: Flag-p38α R49/149K mutant (UniProt Q16539 1-360, R49/149K | R49/149K); test: cell-based or functional assay
Flag-p38α wild type [3] = target: T1, Flag-p38α wild type; test: co-IP; Flag-p38α immunoprecipitated with anti-Flag antibodies and protein G agarose at 4 °C from lysates (1 mg) of p38α-knockdown K562 cells after AraC (1 μM, 5 h); lysis buffer 150 mM NaCl, 20 mM Tris pH 7.4, 0.2% Triton X-100; partners detected by Western blot and quantified; in Figure 6D with or without HA-PRMT1; conditions: partners not purified

T1 sequence (Q16539 whole entry): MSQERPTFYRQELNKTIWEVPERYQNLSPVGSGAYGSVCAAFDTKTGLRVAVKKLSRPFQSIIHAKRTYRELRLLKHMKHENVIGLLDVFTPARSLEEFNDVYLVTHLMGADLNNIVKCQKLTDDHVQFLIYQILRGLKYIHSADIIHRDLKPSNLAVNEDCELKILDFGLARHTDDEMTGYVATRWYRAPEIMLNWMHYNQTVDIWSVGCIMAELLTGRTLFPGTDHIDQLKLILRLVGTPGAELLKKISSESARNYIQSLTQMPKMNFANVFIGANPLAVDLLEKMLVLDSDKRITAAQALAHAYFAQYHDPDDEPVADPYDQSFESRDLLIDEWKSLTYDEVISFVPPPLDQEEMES
Flag-p38α R49/149K mutant, sequence (Q16539 other isoform, or with tags, fused parts or gaps R49/149K | R49/149K | R49/149K | R49/149K | mutant): as the sequence (Q16539 whole entry) above, with R49K, R149K counted along it

B1: MAPK kinase 3 (MKK3) (enzyme, human (endogenous in K562), UniProt P46734 1-347, looked up)
chain: MESPASSQPASMPQSKGKSKRKKDLRISCMSKPPAPNPTPPRNLDSRTFITIGDRNFEVEADDLVTISELGRGAYGVVEKVRHAQSGTIMAVKRIRATVNSQEQKRLLMDLDINMRTVDCFYTVTFYGALFREGDVWICMELMDTSLDKFYRKVLDKNMTIPEDILGEIAVSIVRALEHLHSKLSVIHRDVKPSNVLINKEGHVKMCDFGISGYLVDSVAKTMDAGCKPYMAPERINPELNQKGYNVKSDVWSLGITMIEMAILRFPYESWGTPFQQLKQVVEEPSPQLPADRFSPEFVDFTAQCLRKNPAERMSYLELMEHPFFTLHKTKKTDIAAFVKEILGEDS
notes: MKK3 (MAPK kinase 3), endogenous in human K562 cells, detected with anti-MKK3 (Cell Signaling #5674); source: endogenous, K562 lysate
**Q.** Which results are given for B1?
**A.** sorbitol (150 mM)-induced activation phosphorylation of Flag-p38α at 0.5 h (Western blot with anti-phospho-p38) (Flag-p38α wild type [1]): ~4 fold; sorbitol (150 mM)-induced activation phosphorylation of Flag-p38α at 0.5 h (Western blot with anti-phospho-p38) [2]: ~2 fold; fold change of the interaction with HA-PRMT1 against without (Flag-p38α wild type [3]): 1.7 fold
